The target of assay [1] is T1, CD70 expressed on the surface of Raji lymphoma cells (Homo sapiens, UniProt P32970).
T1 construct: endogenous in cells; host or cells: Daudi (ATCC CCL-213), HuT 78 (TIB-161), Raji (CCL-86), Granta 519 (DSMZ 342)
T1 sequence (P32970 1-193): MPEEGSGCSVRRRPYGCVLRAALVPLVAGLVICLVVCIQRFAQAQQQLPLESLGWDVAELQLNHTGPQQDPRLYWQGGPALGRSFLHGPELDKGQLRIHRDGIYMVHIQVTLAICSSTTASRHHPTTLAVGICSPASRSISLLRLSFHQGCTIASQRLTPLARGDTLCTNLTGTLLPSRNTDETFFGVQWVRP
In words: Flow cytometry binding to Raji cells. To be noted: antibody 10 μg/ml. As to the method:
Anti-CD70 antibodies were tested for binding to lymphoma cells expressing CD70 on their cell surface by flow cytometry.
The lymphoma cell lines Daudi (ATCC Accession No. CCL-213), HuT 78 (ATCC Accession No. TIB-161) and Raji (ATCC Accession No. CCL-86) were each tested for antibody binding. Binding of the HuMAb 2H5 anti-CD70 human monoclonal antibody was assessed by incubating 1×10^5 cells with 2H5 at a concentration of 1 μg/ml. The cells were washed and binding was detected with a FITC-labeled anti-human IgG Ab. […] Flow cytometric analyses were performed using a FACSCalibur flow cytometry (Becton Dickinson, San Jose, Calif.). The anti-CD70 monoclonal antibody 2H5 bound to the lymphoma cell lines Daudi, HuT 78 and Raji, as measured by the mean fluorescent intensity (MFI) of staining.
The lymphoma cell lines Raji and Granta 519 (DSMZ Accession No. 342) were tested for binding of the HuMAb anti-CD70 human monoclonal antibody 2H5 at varying concentrations. Binding of the anti-CD70 human monoclonal antibodies was assessed by incubating 5×10^5 cells with antibody at a starting concentration of 50 μg/ml and serially diluting the antibody at a 1:3 dilution. An isotype control antibody was used as a negative control. The cells were washed and binding was detected with a PE-labeled anti-human IgG Ab. […]

Assay [2] deals with T2, human CD70 expressed on the cell surface (human, UniProt P32970 1-193).
T2 construct: also called full length CD70 on transfected CHO cells
T2 sequence: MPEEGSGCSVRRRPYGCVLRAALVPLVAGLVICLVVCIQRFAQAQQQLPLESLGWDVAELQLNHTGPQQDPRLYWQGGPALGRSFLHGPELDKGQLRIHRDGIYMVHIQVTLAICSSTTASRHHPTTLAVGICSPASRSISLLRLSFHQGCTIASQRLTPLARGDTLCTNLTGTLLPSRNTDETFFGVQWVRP
In words: flow cytometry on 786-O cells, MFI. The procedure:
Binding of the anti-CD70 human monoclonal antibodies was assessed by incubating 5×10⁵ cells with antibody at a starting concentration of 10 μg/ml and serially diluting the antibody at a 1:3 dilution. The cells were washed and binding was detected with a PE-labeled anti-human IgG Ab. Flow cytometric analyses were performed using a FACSCalibur flow cytometry (Becton Dickinson, San Jose, Calif.).
(In flow cytometry, cells or beads pass a laser one at a time.)

Assay [3] concerns IM-9 cells. In words: ADCC fluorescence cytotoxicity assay, IM-9. Type of assay: cell-based, human. To be noted: target to effector ratio 1:50. As to the method:
In this example, a defucosylated and non-defucosylated anti-CD70 monoclonal antibody was tested for the ability to kill CD70+cells in the presence of effector cells via antibody dependent cellular cytotoxicity (ADCC) in a fluorescence cytotoxicity assay
Human Anti-CD70 monoclonal antibody 2H5 was defucosylated as described above. Human effector cells were prepared from whole blood as follows. Human peripheral blood mononuclear cells were purified from heparinized whole blood by standard Ficoll-paque separation. The cells were resuspended in RPMI1640 media containing 10% FBS (culture media) and 200 U/ml of human IL-2 and incubated overnight at 37° C. The following day, the cells were collected and washed once in culture media and resuspended at 2×10^7 cells/ml. […]
The CD70+ cell lines ARH-77 (human B lymphoblast leukemia; ATCC Accession No. CRL-1621), MEC-1 (human chronic B cell leukemia; DSMZ Accession No. ACC 497), SU-DHL-6 (human B cell lymphoma, DSMZ Accession No. Acc572), IM-9 (human B lymphoblast; ATCC Accession No. CCL-159) and HuT 78 (human cutaneous lymphocyte lymphoma; ATCC Accession No. TIB-161), were tested for antibody specific ADCC to the defucosylated and non-defucosylated human anti-CD70 monoclonal antibody 2H5 using the Delfia fluorescence emission analysis as follows. […]

B1: anti-CD70 human monoclonal antibody 69A7 (antibody, V domains shown)
VH: QVQLQESGPGLVKPSETLSLTCTVSGGSVSSDYYYWSWIRQPPGKGLEWLGYIYYSGSTNYNPSLKSRVTISVDTSKNQFSLKLRSVTTADTAVYYCARGDGDYGGNCFDYWGQGTLVTVSS
VL: EIVLTQSPATLSLSPGERATLSCRASQSVSSYLAWYQQKPGQAPRLLIFDASNRATGIPARFSGSGSGTDFTLTISSLEPEDFAVYYCQQRSNWPLTFGGGTKVEIK
notes: Human IgG from hybridoma; also called HuMAb 69A7; FITC-conjugated 69A7
The term EC50 denotes the concentration giving half of the maximal effect. Turning to B1, the “binding to Raji cells (MFI)” value in assay [1] is reported as “bound”. A half-maximal effect in assay [2] (EC50) was put at 6.93 nM.

B2: 2H5 NF: 2H5 HuMAb lacking fucosyl residues, expressed in CHO cell line Ms704-PF (antibody, V domains shown)
VH: QVQLVESGGGVVQPGRSLRLSCAASGFTFSSYIMHWVRQAPGKGLEWVAVISYDGRNKYYADSVKGRFTISRDNSKNTLYLQMNSLRAEDTAVYYCARDTDGYDFDYWGQGTLVTVSS
VL: EIVLTQSPATLSLSPGERATLSCRASQSVSSYLAWYQQKPGQAPRLLIYDASNRATGIPARFSGSGSGTDFTLTISSLEPEDFAVYYCQQRTNWPLTFGGGTKVEIK
Take B2: the “ADCC, % specific lysis of IM-9” value in assay [3] is listed as “increased percentage of specific lysis”.

The record behind these values is patent publication US20100150950A1, “HUMAN ANTIBODIES THAT BIND CD70 AND USES THEREOF” (Medarex, Inc., priority 2006, published 2010).
